In IntAct's records for PubMed 25487150:

Columns and labels:
pp11_schpo dis2 [1] = target: pp11_schpo dis2 (UniProt P13681)
pp11_schpo dis2 [2] = target: pp11_schpo dis2 (UniProt P13681); remark: listed apart in the source
pp1g_human PPP1CC = pp1g_human PPP1CC (UniProt P36873)
pp1b_human PPP1CB = pp1b_human PPP1CB (UniProt P62140)
pp1a_human PPP1CA = pp1a_human PPP1CA (UniProt P62136)
pp1a_human PPP1CA, sequence (P62136 whole entry): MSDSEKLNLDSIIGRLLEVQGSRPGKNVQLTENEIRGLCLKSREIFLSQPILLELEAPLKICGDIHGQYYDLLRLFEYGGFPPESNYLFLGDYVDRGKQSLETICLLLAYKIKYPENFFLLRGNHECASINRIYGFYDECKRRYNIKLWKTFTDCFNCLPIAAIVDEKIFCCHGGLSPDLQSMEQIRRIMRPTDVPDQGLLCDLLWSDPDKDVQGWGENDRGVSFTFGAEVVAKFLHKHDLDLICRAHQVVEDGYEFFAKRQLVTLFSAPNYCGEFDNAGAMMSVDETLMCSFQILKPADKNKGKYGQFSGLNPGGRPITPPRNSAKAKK

pp11_schpo dis2, sequence (P13681 whole entry): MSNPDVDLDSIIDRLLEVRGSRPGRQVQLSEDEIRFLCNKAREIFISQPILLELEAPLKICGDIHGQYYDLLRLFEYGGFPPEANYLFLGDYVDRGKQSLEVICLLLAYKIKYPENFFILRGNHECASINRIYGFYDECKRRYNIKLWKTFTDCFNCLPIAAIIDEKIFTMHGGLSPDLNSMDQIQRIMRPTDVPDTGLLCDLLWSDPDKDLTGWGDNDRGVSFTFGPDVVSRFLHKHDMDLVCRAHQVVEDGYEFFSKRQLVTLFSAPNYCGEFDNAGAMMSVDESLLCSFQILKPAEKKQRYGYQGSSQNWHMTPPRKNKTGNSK
Serine/threonine-protein phosphatase 2A 56 kDa regulatory subunit delta 1 isoform (Schizosaccharomyces pombe (strain ATCC 38366 / 972)), Q10428 G367A, sequence (Q10428 whole entry G367A, canonical isoform): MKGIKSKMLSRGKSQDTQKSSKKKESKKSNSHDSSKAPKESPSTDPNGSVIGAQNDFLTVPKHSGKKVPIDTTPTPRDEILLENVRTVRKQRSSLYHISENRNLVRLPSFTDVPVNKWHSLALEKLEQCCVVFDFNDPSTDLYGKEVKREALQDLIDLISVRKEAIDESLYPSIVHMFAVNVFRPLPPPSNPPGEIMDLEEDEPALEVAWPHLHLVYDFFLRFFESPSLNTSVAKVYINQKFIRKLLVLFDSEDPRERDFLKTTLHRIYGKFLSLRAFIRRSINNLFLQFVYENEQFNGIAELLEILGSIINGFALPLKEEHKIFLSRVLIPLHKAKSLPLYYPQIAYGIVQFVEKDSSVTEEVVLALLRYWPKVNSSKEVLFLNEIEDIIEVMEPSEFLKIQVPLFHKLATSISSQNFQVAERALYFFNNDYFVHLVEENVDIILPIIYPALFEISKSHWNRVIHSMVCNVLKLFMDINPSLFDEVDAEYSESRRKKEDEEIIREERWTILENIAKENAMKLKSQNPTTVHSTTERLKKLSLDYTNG
Serine/threonine-protein phosphatase 2A 56 kDa regulatory subunit delta 1 isoform (Schizosaccharomyces pombe (strain ATCC 38366 / 972)), Q10428 G367A;V381A, sequence (Q10428 whole entry G367A/V381A, canonical isoform): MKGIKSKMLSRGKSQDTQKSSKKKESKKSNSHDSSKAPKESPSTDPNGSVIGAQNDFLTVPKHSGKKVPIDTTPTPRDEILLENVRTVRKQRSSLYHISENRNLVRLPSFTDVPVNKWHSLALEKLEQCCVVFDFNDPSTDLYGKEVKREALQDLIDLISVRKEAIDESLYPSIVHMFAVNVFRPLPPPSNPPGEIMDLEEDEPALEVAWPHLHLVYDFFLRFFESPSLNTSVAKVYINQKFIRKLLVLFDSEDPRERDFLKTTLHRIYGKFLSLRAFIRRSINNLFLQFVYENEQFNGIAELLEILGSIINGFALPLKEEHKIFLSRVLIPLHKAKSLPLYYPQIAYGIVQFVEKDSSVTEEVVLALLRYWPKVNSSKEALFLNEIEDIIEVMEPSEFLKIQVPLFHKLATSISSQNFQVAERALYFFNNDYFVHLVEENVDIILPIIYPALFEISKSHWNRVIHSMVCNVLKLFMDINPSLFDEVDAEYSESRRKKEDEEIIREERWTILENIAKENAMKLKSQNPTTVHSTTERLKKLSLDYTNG
Serine/threonine-protein phosphatase 2A 56 kDa regulatory subunit delta 1 isoform (Schizosaccharomyces pombe (strain ATCC 38366 / 972)), Q10428 K379A;V381A;F383A, sequence (Q10428 whole entry K379A/V381A/F383A, canonical isoform): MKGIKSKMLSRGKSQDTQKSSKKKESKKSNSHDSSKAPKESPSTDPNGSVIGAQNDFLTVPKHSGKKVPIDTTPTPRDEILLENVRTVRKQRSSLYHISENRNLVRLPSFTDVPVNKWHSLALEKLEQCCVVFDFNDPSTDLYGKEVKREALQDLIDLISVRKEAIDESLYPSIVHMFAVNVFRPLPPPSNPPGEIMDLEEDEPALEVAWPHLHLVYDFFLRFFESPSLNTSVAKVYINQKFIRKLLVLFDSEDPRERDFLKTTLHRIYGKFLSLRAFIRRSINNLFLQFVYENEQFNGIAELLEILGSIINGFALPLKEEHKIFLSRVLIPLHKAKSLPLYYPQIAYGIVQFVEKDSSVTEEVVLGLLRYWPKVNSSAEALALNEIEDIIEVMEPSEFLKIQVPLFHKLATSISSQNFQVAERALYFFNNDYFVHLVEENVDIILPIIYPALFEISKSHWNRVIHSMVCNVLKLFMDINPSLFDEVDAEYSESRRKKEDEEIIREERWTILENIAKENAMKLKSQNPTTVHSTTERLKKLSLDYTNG
Serine/threonine-protein phosphatase 2A 56 kDa regulatory subunit delta 1 isoform (Schizosaccharomyces pombe (strain ATCC 38366 / 972)), Q10428 G367V, sequence (Q10428 whole entry G367V, canonical isoform): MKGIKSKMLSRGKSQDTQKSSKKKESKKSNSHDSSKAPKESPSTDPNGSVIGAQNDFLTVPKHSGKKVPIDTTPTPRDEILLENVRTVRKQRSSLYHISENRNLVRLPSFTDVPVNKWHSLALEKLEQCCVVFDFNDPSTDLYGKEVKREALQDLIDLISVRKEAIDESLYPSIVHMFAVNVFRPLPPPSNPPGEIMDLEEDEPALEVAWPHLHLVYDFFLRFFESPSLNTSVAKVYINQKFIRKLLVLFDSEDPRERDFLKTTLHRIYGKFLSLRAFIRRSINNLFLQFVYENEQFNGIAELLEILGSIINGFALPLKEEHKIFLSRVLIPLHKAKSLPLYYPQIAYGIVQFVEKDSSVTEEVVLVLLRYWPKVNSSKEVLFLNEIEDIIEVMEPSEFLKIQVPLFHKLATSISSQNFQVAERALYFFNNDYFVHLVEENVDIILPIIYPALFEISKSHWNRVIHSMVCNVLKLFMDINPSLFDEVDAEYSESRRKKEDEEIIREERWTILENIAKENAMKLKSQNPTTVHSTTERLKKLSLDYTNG
Serine/threonine-protein phosphatase 2A 56 kDa regulatory subunit delta 1 isoform (Schizosaccharomyces pombe (strain ATCC 38366 / 972)), Q10428 G367V;V381A, sequence (Q10428 whole entry G367V/V381A, canonical isoform): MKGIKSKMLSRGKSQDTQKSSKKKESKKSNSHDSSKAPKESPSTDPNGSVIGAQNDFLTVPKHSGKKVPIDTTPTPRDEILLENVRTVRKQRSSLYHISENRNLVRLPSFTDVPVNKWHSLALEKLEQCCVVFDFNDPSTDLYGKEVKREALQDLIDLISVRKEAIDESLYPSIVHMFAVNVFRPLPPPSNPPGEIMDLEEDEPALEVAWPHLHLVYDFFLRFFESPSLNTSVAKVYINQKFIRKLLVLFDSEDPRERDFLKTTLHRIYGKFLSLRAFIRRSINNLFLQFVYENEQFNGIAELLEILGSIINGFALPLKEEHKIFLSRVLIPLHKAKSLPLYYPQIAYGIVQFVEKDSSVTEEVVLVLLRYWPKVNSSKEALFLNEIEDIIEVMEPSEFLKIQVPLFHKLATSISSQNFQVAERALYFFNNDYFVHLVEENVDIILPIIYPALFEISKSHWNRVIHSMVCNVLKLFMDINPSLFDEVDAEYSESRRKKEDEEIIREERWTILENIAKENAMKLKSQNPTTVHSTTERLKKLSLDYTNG
pp1g_human PPP1CC, sequence (P36873 whole entry, looked up): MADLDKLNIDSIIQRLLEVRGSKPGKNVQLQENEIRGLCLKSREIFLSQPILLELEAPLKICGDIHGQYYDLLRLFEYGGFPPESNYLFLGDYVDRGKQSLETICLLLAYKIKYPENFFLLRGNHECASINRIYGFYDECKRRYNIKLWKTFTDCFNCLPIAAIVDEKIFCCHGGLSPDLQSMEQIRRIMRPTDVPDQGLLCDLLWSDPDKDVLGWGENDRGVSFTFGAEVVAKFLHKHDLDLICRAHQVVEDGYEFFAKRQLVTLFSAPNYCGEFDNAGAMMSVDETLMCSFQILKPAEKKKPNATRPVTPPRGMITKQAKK
Serine/threonine-protein phosphatase 2A 56 kDa regulatory subunit delta 1 isoform (Schizosaccharomyces pombe (strain ATCC 38366 / 972)), Q10428 S378D, sequence (Q10428 whole entry S378D, canonical isoform): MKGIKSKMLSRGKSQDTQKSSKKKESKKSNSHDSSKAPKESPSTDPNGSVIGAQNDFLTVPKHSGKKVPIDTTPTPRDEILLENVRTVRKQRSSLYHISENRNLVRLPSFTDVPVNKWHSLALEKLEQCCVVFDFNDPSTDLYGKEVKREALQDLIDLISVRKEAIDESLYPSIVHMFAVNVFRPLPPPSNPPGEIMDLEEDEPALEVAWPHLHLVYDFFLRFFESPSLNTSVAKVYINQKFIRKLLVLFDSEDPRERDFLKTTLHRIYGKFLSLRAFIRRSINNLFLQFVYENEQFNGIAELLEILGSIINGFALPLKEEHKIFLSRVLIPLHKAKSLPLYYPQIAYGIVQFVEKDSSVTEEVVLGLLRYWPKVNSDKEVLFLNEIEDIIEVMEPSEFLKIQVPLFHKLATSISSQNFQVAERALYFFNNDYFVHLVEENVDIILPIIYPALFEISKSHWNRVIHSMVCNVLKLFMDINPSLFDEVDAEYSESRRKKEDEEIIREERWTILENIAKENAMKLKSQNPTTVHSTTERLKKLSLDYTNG
pp1b_human PPP1CB, sequence (P62140 whole entry): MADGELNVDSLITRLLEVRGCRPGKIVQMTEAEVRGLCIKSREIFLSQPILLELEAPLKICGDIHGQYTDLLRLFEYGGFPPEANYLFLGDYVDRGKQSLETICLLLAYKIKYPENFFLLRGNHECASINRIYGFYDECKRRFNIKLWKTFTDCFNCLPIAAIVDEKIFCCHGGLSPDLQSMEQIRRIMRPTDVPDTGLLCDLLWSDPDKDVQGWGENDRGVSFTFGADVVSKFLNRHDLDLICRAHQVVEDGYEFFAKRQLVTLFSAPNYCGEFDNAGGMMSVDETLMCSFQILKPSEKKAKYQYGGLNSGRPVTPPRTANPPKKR

Row | Substance | effect of a mutation on the interaction (pp11_schpo dis2 [1]) | effect of a mutation on the interaction (pp11_schpo dis2 [2]) | other results
1 | Serine/threonine-protein phosphatase 2A 56 kDa regulatory subunit delta 1 isoform (Schizosaccharomyces pombe (strain ATCC 38366 / 972)), Q10428 G367A;K379A;V381A;F383A | disrupting interaction strength |  | 
2 | Serine/threonine-protein phosphatase 2A 56 kDa regulatory subunit delta 1 isoform (Schizosaccharomyces pombe (strain ATCC 38366 / 972)), Q10428 G367V;V381A | decreasing interaction strength |  | 
3 | Serine/threonine-protein phosphatase 2A 56 kDa regulatory subunit delta 1 isoform (Schizosaccharomyces pombe (strain ATCC 38366 / 972)), Q10428 K379A;V381A;F383A | decreasing interaction strength | disrupting interaction strength | 
4 | Serine/threonine-protein phosphatase 2A 56 kDa regulatory subunit delta 1 isoform (Schizosaccharomyces pombe (strain ATCC 38366 / 972)), Q10428 G367V | decreasing interaction strength | disrupting interaction strength | 
5 | Serine/threonine-protein phosphatase 2A 56 kDa regulatory subunit gamma isoform (Homo sapiens) (from UniProt Q13362) L289A;L290A;V302A;F304A |  |  | effect of a mutation on the interaction (pp1g_human PPP1CC): disrupting interaction strength; effect of a mutation on the interaction (pp1b_human PPP1CB): disrupting interaction strength; effect of a mutation on the interaction (pp1a_human PPP1CA): disrupting interaction strength
6 | Serine/threonine-protein phosphatase 2A 56 kDa regulatory subunit delta 1 isoform (Schizosaccharomyces pombe (strain ATCC 38366 / 972)), Q10428 G367A | decreasing interaction strength | disrupting interaction strength | 

Now from value to substance, other results behind:

Row | effect of a mutation on the interaction (pp11_schpo dis2 [1]) | effect of a mutation on the interaction (pp11_schpo dis2 [2]) | Substance | other results
7 | disrupting interaction strength |  | Serine/threonine-protein phosphatase 2A 56 kDa regulatory subunit delta 1 isoform (Schizosaccharomyces pombe (strain ATCC 38366 / 972)), Q10428 S378D | 
8 | disrupting interaction strength |  | Serine/threonine-protein phosphatase 2A 56 kDa regulatory subunit delta 1 isoform (Schizosaccharomyces pombe (strain ATCC 38366 / 972)), Q10428 G367V;K379A;V381A;F383A | 
9 | decreasing interaction strength | disrupting interaction strength | Serine/threonine-protein phosphatase 2A 56 kDa regulatory subunit delta 1 isoform (Schizosaccharomyces pombe (strain ATCC 38366 / 972)), Q10428 G367A;V381A | 
